Consider 20 sequences from the DeepSol protein solubility set.

The data set can be described thus: soluble on expression in E. coli; label from the status in PepcDB or PDB records.
In the case of “MTELARLKFYATQPHSCSYLPDEQATTLFLDPSQPMDVHVYADLSEMGFRRSGDHLYRPHCQNCNACVPARIPATQFLPSRQQKRIIKRNSDLTVHAAKPCFSEEYFDLYQRYIEQRHADGDMFPPSRDQFSTFLVRDLPFSRFYEFRLDGRLLAVAVTDLLPNGLSAVYTFYEPDEERRSLGRFAILWQIGETLRLGLDAVYLGYWIKNCKKMNYKTQYRPIELLVNQRWVILNLEHHHHHH”, the “soluble on expression in E. coli” value was “not soluble”.
“MTELEAAMGMIIDVFSRYSGSEGSTQTLTKGELKVLMEKELPGFLQSGKDKDAVDKLLKDLDANGDAQVDFSEFIVFVAAITSASHKYFEKTGLK”: the “soluble on expression in E. coli” value is reported as “soluble”.
With “MTELSAFPITRKWPAKHPERLQLYSLPTPNGVKVSIMLEEIGLAYEAHKVSFDNDDQLSPEFISLSANNKIPAILDPNGPGGQPLALFESGAILQYLAEKSGQLLSQDPAQRYQTLQWLMFQMGGIGPMFGQVGFFHFFAGKEYEDKRPRDRYVNESKRLLGVLDRHLKGRQWMAEEYSIADIAIFPWVRNLVERYNARDLVGFDQFKEVQRVLANFLERPAVQRGLKIPG”, the “soluble on expression in E. coli” value is on record as “not soluble”.
Then “MTENEDLVAGLLLAAGGGRRLGGRPKALLEHRGRPLVEHVAGVLRAAGSTRVYVVLGAQAAAVRERAVLPGCILVDNPDWELGMGTSLRAGLEAMHGTGVRAALVSLVDQPGIGPAAVARVRAAYTSPSTLASAAYDGVRGHPVLFGAAHWAAVAASATGDRGARAYLKAHESAITLVECGDVAEAYDIDTVADLVHLELEHHHHHH”, with “not soluble”; and “MTEPLILQPAKPADACVIWLHGLGADRYDFMPVAEALQESLLTTRFVLPQAPTRPVTINGGYEMPSWYDIKAMSPARSISLEELEVSAKMVTDLIEAQKRTGIDASRIFLAGFSQGGAVVFHTAFINWQGPLGGVIALSTYAPTFGDELELSASQQRIPALCLHGQYDDVVQNAMGRSAFEHLKSRGVTVTWQEYPMGHEVLPQEIHDIGAWLAARLG”, with “soluble”.
Then “MTERSPLRVGIGGPVGSGKTALTLNLCRALRNKYNMAVVTNDIYTKEDSNFLTRNEAMTPDRIVGVETGGCPHTAIREDASINLAAIDDLCEKFDGLELIIIESGGDNLAATFSPELSDLTLYVIDVAGGEKIPRKGGPGITKSDLLIINKTDLAPMVGANLDVMEQDAKRMRGEKPFLFSNMKTEDGLTQIIEFIEKQGLFKALEHHHHHH”, with “soluble”; and “MTESFADLFEQSLQTLEFRPGSIVRGTVVAIENGMVLVDAGLKSESPIPAEQFKNAQGVLEIAVGDEVDVALDSVEDGFGETQLSREKAKRHEAWIVLEKAYEDAETVIGIINGKVKGGFTVELNGIRAFLPGSLVDVRPVRDTAHLEYKELEFKVIKLDQKRNNVVVSRRAVIESESSAERDALLENLQEGQAVKGIVKNLTDYGAFVDLGGVDGLLHITDMAWKRVKHPSEIVNVGDEINVKVLKYDRERTRVSLGLKQLGEDPWLEISKRYPENTKLTGRVTNLTDYGCFVEIEEGVEGLVHVSEMDWTNKNIHPSKVVNLGDEVEVLVLDIDEERRRISLGLKQCKTNPWDDFATRYNKGDKVSGKIKSITDFGIFIGLDGGIDGLVHLSDISWNGTGEDAVSEYKKGDEIHAVVLSVDPERERISLGVKQTEDDPFNAYLADKKKGTIVHGTVSAVDAKGVTVELADTVEGYIRVADISRERIEDASTVYSVGDAIEAKFMGVDRKNRSISLSIKAKDEAEEKEVMATLNKQEDAVISNAMAEAFKAARKLEHHHHHH”, with “soluble”; and “MTFAWGRGSHGGAGMRIVQITDTHFSPTKAHFNGNWAPLAAWIEQSGADLVIHTGDLSVDGADRDDDIAFCMDLMREISAPMLLVPGNHDVGHLPGSLQPVNAGRLERWRRLVGPDYWMEDAGSWRLIGLDSLLMGFDDAEEEAQFDWLRTVLESRGGRRVALFAHKPLFVDAPGEGDTGYWSVRPAQRQRLYDLIATHDVALFASGHLHRAWQGKYENTSLVWGPSAALEHHHHHH”, with “soluble”.
With “MTFGEKLLNAASTRGRLCVGIDPHESLLTSWGLPVNVDGLAEFSRACVEAFADTVALVKPQVAFYERFGSAGFAILEETIQTLRERGCLVVSDAKRGDIGSTMAGYASAWLDPASPLSSDAVTVSPYLGFHSLDPVFELAEQHGRGVFVLAATSNPEARELQDQQNADGVSISQQIVDQAAALNAPYMAQGKAGNIGVVIGATLSKPPRLSTLGGAILMPGVGAQGGTASDVDEIAGDMAHLAFPNVSRSILATGPDIAEMKNSVAKNAADFPGFPRS”, the “soluble on expression in E. coli” value is “soluble”.
Then “MTFIKRLEDAYETLLGNYPAGVSSTSTSKYNEIRKIVSEAFLIGENEVYVTGTSRRISNLDTRFAQGNQRNKHTRMAVAFISIPSVDDSELDELIIRTRNSAITTSSKFCNGEERGTIFDGILLFLVFEGETKVYPLAFLVFENDFELKEKAEELIPGIELKEYPRANQSPAQENNKSAKNEDEESAKSYVVFLDIEEDGSIVEFVEDKDKTYRIGDMIWTASHTNGSSAITRRLEVIEVVENLVVCKIKHKYNEPVDKNSLLKFVNIEQDLISFLDLHPNVQNGSEGFVSGDIVDENATTSSDDLPEDFENN”, with “not soluble”; and “MTFYDHLHASPYTWERVGNLLADATAADVERSLAYRRRTIQDFITLISPAAIPYLEQMARQAHALTVERFGHTMQLYIPLYLSNICSNACVYCGFSRSNKIHRRRLTAEEVDREAEAILRLGYKHLLLVSGESEKATPASYYEKMTRRLRPLFSQLSLEVQPLTTEEYARLHEAGIGAVYVYQETYNEQAYPTYHPAGRKADYRYRLETPDRIGRANMQKIGIGALLGLENWRVDSVFTALHLRYLEQTYWKSKFSISLPRLRPATGGWEPKDPIDDVGMVQLITAFRLLDKDVEISLSTRESREFRDHVMPLGITSVSAGSKTEPGGYAEENADLEQFAINDARSPAEMAADLRRLGYEPVWKDWDAFM”, with “not soluble”; and “MTGDYALCGWRVRIDRPSTFAPPWIGEDRPVDITIRHAAFSPPSPPLLFESPLVGVFAEGAIVLRINPGLGFLIEGGARITVDATAQTGEAEIATFLFGQCLGFLALQRRQPALRAASVVRDGRAVVLAGAAGVGKSTLAAALMAKGWGLLADEVTLIDPRTLLIPPAFGRIKLWKDSATHLGLEAAALPAVRPGWNKGHAPYGGHLAPAPVPLAAIILIEQAYTAKTAGIDKIAPREALAALNDQLHGGTFAGALAARPACFDLLTTLVGGVPVFQLSRPWHGMTLAPLVELLTAEMARLEHHHHHH”, with “not soluble”.
Turning to “MTGFDFSDKTVWVTGAGKGIGYATALAFVDAGARVIGFDREFTQENYPFATEVMDVADAAQVAQVCQRVLQKTTRLDVLVNAAGILRMGATDALSVDDWQQTFAVNVGGAFNLFSQTMAQFRRQQGGAIVTVASDAAHTPRIGMSAYGASKAALKSLALTVGLELAGCGVRCNVVSPGSTDTDMQRTLWVSEDAEQQRIRGFGEQFKLGIPLGKIARPQEIANTILFLASDLASHITLQDIVVDGGSTLGA”, the “soluble on expression in E. coli” value was “not soluble”.
As to “MTGTERKVFQKYYPPDFDPSKIPRAKGQKNRQFVQRVMTPFNMQCNTCHEYIYKGKKFNMKRETAEGETYLGLKLFRFYFRCPNCLAEITFKTDLENCDYQNEHGATRLFEAVKLYQDQQKQVDEQEAEDAKDPMKMLEKRTMQSRQEMEEMGNLEDLQESSRTKECIDTIGFLSSTDPHIAQAQRIKMMEDEDDRMARELMGITSEGRIERRIKDDEDNSDGADEDDKDIPGPSASVVPSTSSMLKPAIPKLGMDDSGNSRKRNEQRDRFAGIKLIKKAKPSEPSTSSTASSTSSAPPPLPSSAASSGLSLLADYGSGSDSD”, the “soluble on expression in E. coli” value was “not soluble”.
Under “MTHHTEVFEGGTIDIEDDTSLTINGKEISYVHDAVKNKWSSRYLPYTQYDSLLDLARAIIRDTVEFSGVKE” stands “soluble”; under “MTHLFALSELPLDEIHRLLDEAEAFRSGRIWRPAAPMYVANLFFEPSTRTKCSFEMAERKLGLHVIPFDPERSSVQKGETLYDTVRTLEAIGVDAVVIRHHEDAYFEALRHAVGIPIINAGDGCGHHPTQSLLDLLTIRQEFGAFTGLTVAIIGDIRHSRVARSNAEVLTRLGANVLFSGPAEWKDETNPYGTYVEVDEAIARADVVMLLRIQHERHAETMGLTKEEYHARYGLTLERARRMKSGAIILHPAPVNRGVEIASELVEAKASRIFKQMENGVYVRMAVLKRAMEGRMEHGRMAEKWHVVQ”, “soluble”; under “MTHPIIHDLENRYTSKKYDPSKKVSQEDLAVLLEALRLSASSINSQPWKFIVIESDAAKQRMHDSFANMHQFNQPHIKACSHVILFANKLSYTRDDYDVVLSKAVADKRITEEQKEAAFASFKFVELNCDENGEHKAWTKPQAYLALGNALHTLARLNIDSTTMEGIDPELLSEIFADELKGYECHVALAIGYHHPSEDYNASLPKSRKAFEDVITIL”, “soluble”.
Under “MTIASITLTNNRLEWQSLLPNTTPYEALFATASQLEPVAFSAYQPRLENGMTLFCHPQSQPRFMLIKAQESTDYLALIAQAVKALQPEASNLLGGDYLVHGHHVTWQSAQHGDERFAAQSTCLYQEWVEPEQLFGCVRMYKDQITLQPGLVHQVNGGVLILSVRALQAQPLMWLRLKQMIVQQRFDWLSTDETRPLPVHIPSMPLDLRLILVGDRLGLADFHDMEPELGDLAIYGEFEAELPLVDIEGMALWCGYINTLLQQKQLPALSADAWPVLFRQAVRYSGDQGSLPLCPQWLTQQLAEAALYAENDTISANALEAALNARNWRQNYLAERMQDEIELGQILVETEGHVVGQINALSVLEYPGHPHAFGEPARISCVVHLGDGEFVDVERKAELGGNIHAKGMMIMQAFLMSELELDQPLPFSASIVFEQSYGEVDGDSASLAELCALVSALSQQPINQQIAVTGSVDQFGNVQPIGGVNEKIEGFFETCQRRGLTGNQGVILPTTNVRHLCLNQAVVEAVQKGQFHLWAVDTVAEALPLLTGVTYDDEQQPSLLGAIQERIAQINPQDKRRWPWPLRWLNWFNQG” stands “soluble”.
Under “MTICRPGKGHLMIQFDAVHKRFPNGTTAVHDLSLEMPEGGVTVLVGSSGCGKTTTLRMINRMVDPTSGTIRVGGRDILEQDAAELRRSIGYVIQQSGLFPHRTVLDNIATVPLLLGWGRRKARARAAELLDTVGLAADAGRRYPHQLSGGQQQRVGVARALAADPPVLLMDEPFGAVDPVVRTQLQDELLRLQKELSKTIVFVTHDIDEAVRLGDQIAVFRTGGHLVQCASPAELLARPADDFVADFLGAERGLKLLSLTTLADVPQGPAPEGGAWTLVLDEARRPQHWRSKDGAELPVRPLRDRDSLLAALNESVASPNGLTVRVDADGVLTGVSSRDDIHEHAGRAHSEASVAALEHHHHHH” stands “not soluble”; under “MTIEKIDTLVIGAGQAGVAMSEHLSKQDVPHLVLERNRIAEQWRTGRWDSLVANGPAWHDRFPGLEFEEHDPDSFVPKEKIADYLVDYAKKFDAPIRTGIEVKNVERNTNGQGFIIETSQGTIEAKRVVSATGPFQVPVIPPIAKNEKITQIHSADYRNPEQLEDGAVLVVGAGSSGVQIADELQRSGRKVFLSTGPHDRPPRSYRNRDFCWWLGVLGEWDRESLEPGTEHVTIAVTGAHGGNGTVDFRALAHQGITLLGMTKEFNNGKVTFQKDLNTNVERGNKNYMDFLDSADAYIERNGLDLPEEPTARDVLSDPECMTNPILELDLAKEGITSIVWATGFALDYSWLNVDAFDENGKPAHQRGVSTEPGVYFVGQAWLSRRGSAFIWGVWHDAKHIAGHISTQRTYSAYQDASQRLEHHHHHH”, “soluble”.
